In paper PMC10545747, “Development of cyclopeptide inhibitors of cGAS targeting protein-DNA interaction and phase separation”:

Assays:
hcGAS-FL = hcGAS-FL (Homo sapiens, UniProt Q8N884 1-522); assay: fluorescence polarization; 300 nM protein, 40 nM DNA; XQ2 competes with IC50 19.2 ± 6.7 uM (inhibitor value, not DNA affinity); FP: 20 mM HEPES pH 7.5, 125 mM KCl, 10 mM MgCl2; 300 nM cGAS, 40 nM FAM-ISD; temperature not stated. MST conditions not given in the material; conditions: protein: recombinant; tags: 6xHis-SUMO removed by ULP1; label: 5'-FAM on sense strand; blunt
Chain of hcGAS-FL (Q8N884 whole entry): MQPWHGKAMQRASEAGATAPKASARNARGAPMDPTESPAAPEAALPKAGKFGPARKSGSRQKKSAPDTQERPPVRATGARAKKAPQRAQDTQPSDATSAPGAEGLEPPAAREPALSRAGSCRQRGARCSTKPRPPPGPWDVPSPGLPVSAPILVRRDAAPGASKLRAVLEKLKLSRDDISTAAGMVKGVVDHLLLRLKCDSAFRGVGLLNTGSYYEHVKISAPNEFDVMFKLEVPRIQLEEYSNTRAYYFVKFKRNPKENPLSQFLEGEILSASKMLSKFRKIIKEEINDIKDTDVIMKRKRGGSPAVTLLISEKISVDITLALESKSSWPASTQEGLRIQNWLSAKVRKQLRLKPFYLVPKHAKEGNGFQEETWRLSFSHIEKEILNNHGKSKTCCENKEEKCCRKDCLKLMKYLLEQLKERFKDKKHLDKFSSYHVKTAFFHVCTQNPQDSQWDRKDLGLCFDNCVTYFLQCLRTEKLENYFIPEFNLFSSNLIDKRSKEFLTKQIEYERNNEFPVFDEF

hcGAS-FL (D191R) = hcGAS-FL (D191R) (Homo sapiens, UniProt Q8N884 1-522, D191R); assay: fluorescence polarization; D191R did not interfere with dsDNA binding; XQ2 inhibition markedly reduced; FP: 20 mM HEPES pH 7.5, 125 mM KCl, 10 mM MgCl2; 300 nM cGAS, 40 nM FAM-ISD; temperature not stated. MST conditions not given in the material; conditions: protein: recombinant; tags: 6xHis-SUMO removed by ULP1; label: 5'-FAM on sense strand; blunt
Chain of hcGAS-FL (D191R) (Q8N884 whole entry D191R): as the sequence (Q8N884 whole entry) above, with D191R counted along it

B1: 45-bp FAM-ISD (dsDNA)
DNA 1: TACAGATCTACTAGTGATCTATGACTGATCTGTACATGATCTACA
DNA 2: TGTAGATCATGTACAGATCAGTCATAGATCACTAGTAGATCTGTA
B1: binds (hcGAS-FL); binds (hcGAS-FL (D191R)).
